B1: HcLc (chimera of 2A10: murine 2A10 VH and VL with human IgG constant regions) (antibody, V domains shown)
VH: QVQLQQPGTELVKPGASVKLSCKASGYTFTSYWMHWVKQRPGQGLEWIGNINPSNGGTNYNEKFKSKATLTVDKSSSTAYMQLSSLTSEDSAVYYCELGQGYWGQGTLVTVSS
VL: DIVITQDELSNPVTSGESVSISCRSSKSLLYKDGKTYLNWFLQRPGQSPQLLIYLMSTRASGVSDRFSGSGSGTDFTLEISRVKAEDVGVYYCQQLVEYPLTFGAGTKLELKR
notes: also called chimeric antibody; chimeric form of the parental antibody
B2: H28L16 (antibody, human IgG1, kappa)
heavy: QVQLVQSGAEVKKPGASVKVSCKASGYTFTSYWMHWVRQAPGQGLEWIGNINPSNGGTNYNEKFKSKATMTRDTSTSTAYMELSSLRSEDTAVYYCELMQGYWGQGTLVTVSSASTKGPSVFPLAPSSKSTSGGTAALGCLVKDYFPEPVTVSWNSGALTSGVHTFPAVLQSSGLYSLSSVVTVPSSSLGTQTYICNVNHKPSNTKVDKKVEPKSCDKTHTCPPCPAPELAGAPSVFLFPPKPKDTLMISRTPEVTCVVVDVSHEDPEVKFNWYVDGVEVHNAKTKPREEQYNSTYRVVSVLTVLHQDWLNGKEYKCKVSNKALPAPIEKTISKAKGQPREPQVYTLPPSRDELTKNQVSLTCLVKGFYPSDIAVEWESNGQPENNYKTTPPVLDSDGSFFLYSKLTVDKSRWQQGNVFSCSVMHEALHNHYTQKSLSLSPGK
light: DIVMTQSPLSNPVTLGQPVSISCRSSKSLLYKDGKTYLNWFLQRPGQSPQLLIYLMSTRASGVPDRFSGGGSGTDFTLKISRVEAEDVGVYYCQQLVEYPLTFGQGTKLEIKRTVAAPSVFIFPPSDEQLKSGTASVVCLLNNFYPREAKVQWKVDNALQSGNSQESVTEQDSKDSTYSLSSTLTLSKADYEKHKVYACEVTHQGLSSPVTKSFNRGEC
notes: IgG1 (L235A, G237A) / kappa; CAMPATH-1H signal (1-19) left out; also called H28FL L16FL; NOGO H28L16

Key:
[1] = biological target: T1, GST-human NOGO-A56 (human); assay: SPR (Biacore T100), reverse format: antibody captured by Protein A, GST Nogo-A 5+6 0.125-8 nM flowed over; mean (SD in brackets)
T1 construct: Expressed in E. coli BL21 from pGEX-6P1 and purified on glutathione-sepharose; the GST tag is part of the protein in the assays; also called GST-Nogo-A 5+6; GST Nogo-A 5 + 6
T1 sequence (chain, as listed by the source limits assumed): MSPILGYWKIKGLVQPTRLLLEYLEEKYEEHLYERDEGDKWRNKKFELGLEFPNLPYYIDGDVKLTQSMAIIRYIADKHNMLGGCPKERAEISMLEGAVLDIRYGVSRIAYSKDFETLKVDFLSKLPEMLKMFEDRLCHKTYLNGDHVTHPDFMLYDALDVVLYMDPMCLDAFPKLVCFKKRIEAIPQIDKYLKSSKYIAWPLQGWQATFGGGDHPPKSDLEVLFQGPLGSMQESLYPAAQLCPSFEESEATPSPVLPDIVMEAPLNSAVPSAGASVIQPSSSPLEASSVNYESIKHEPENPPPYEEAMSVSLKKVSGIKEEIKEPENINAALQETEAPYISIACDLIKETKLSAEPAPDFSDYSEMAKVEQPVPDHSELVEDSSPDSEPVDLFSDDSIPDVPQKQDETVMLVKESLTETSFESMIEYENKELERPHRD
Source text: Protein A was immobilised to approximately 4000RUs by primary amine and used to capture 200-300RUs of the sample antibodies. […] The values show the mean and standard deviation (in brackets) of three independent runs in duplicate. Each data set was independently analysed prior to the calculation of the mean and standard deviation.

[2] = biological target: T2, native human Nogo-A of IMR32 neuroblastoma cells (intracellular) (human, UniProt Q9NQC3 1-1192); assay: flow cytometry on permeabilised, fixed IMR32 cells (intracellular Nogo-A), PE anti-human IgG, MFI
T2 construct: whole, on cells; Detected inside permeabilised, fixed cells (ER-resident), not on the cell surface; also called intracellular Nogo-A; native Nogo-A
T2 sequence (looked up): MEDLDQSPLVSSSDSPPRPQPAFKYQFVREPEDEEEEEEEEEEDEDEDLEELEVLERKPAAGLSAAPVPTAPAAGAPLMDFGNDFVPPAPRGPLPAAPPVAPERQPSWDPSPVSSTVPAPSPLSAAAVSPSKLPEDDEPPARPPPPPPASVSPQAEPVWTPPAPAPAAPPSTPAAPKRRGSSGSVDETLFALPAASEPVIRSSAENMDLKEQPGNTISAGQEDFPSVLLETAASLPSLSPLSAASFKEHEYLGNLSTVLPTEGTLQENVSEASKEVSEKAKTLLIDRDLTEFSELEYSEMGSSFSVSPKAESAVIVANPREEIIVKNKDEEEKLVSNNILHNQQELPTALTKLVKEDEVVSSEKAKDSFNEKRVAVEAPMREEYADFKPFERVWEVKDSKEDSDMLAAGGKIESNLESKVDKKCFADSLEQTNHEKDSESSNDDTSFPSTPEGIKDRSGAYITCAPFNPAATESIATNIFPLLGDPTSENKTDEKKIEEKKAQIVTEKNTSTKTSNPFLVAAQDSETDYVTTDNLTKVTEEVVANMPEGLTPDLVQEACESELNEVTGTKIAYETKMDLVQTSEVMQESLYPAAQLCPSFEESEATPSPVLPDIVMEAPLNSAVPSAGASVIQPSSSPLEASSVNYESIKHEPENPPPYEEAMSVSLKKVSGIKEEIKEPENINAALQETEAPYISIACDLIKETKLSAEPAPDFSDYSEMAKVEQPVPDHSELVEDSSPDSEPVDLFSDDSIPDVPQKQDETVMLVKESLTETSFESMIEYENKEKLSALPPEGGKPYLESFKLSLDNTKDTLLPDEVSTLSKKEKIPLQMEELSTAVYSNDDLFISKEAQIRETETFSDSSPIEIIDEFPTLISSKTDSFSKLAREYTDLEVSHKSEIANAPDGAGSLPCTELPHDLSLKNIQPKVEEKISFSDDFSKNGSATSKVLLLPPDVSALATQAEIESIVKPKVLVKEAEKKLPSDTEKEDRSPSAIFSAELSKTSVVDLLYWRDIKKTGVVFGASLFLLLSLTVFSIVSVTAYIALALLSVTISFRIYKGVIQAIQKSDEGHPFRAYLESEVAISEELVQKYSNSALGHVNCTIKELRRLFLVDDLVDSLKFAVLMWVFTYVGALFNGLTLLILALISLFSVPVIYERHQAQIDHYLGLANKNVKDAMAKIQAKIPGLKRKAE
Procedure: In the second assay, the ability of the humanised antibodies to bind native Nogo-A was assessed using a human neuroblastoma cell line—IMR32. This cell line is characterised by high intracellular/low cell surface levels of Nogo-A protein. In an attempt to increase the binding signal, the assay was set-up to detect intracellular Nogo-A (ER-resident). IMR32 cells were permeabilised and fixed prior to staining with the anti-Nogo-A humanised antibodies. Binding of the antibodies to Nogo-A was detected using an anti-human IgG-PE labelled secondary (Sigma, #P8047).

[3] = biological target: T3, Rat NOGO (A56) plus GST tag (rat); assay: SPR (Biacore T100), Nogo-A orthologue amine-coupled to CM5, antibody 0.125-8 nM flowed over; mean
T3 construct: also called GST-NOGO-A56 from rat
T3 sequence (chain, as listed by the source limits assumed): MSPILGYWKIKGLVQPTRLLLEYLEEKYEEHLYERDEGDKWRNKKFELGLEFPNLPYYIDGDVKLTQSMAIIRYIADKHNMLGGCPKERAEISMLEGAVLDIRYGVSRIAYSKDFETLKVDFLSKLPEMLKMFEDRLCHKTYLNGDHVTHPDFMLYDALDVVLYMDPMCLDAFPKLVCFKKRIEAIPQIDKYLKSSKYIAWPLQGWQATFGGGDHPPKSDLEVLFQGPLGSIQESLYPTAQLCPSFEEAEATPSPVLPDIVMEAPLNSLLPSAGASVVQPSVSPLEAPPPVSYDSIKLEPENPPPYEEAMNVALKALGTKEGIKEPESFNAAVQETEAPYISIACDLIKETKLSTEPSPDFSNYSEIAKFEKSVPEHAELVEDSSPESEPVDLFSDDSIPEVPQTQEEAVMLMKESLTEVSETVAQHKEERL
Source text: (§1) Approximately 140-180RUs of the various Nogo-A orthologues were captured to the CM5 chip by primary amine coupling. […] The values show the mean and standard deviation (in brackets) of 1-2 independent runs carried out in duplicate with each data set independently analysed prior to calculation of the mean and standard deviation.

[4] = biological target: T4, Squirrel monkey NOGO (A56) plus GST tag (squirrel monkey); assay: as above
T4 construct: also called GST-NOGO-A56 from squirrel monkey
T4 sequence (chain, as listed by the source limits assumed): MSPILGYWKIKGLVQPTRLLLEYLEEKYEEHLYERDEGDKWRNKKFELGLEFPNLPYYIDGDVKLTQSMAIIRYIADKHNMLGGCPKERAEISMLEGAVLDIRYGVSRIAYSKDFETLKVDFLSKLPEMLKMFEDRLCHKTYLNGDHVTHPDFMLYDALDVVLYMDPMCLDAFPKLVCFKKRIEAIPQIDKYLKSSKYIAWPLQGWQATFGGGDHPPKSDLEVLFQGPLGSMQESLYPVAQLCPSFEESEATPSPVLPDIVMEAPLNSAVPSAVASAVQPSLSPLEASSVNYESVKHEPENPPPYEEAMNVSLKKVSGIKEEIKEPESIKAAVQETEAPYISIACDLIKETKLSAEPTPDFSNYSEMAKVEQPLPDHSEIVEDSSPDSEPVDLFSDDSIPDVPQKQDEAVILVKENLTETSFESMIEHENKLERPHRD
Source text: as §1

[5] = biological target: T5, Marmoset NOGO (A56) plus GST tag (marmoset); assay: as above
T5 construct: also called GST-NOGO-A56 from marmoset
T5 sequence (chain, as listed by the source limits assumed): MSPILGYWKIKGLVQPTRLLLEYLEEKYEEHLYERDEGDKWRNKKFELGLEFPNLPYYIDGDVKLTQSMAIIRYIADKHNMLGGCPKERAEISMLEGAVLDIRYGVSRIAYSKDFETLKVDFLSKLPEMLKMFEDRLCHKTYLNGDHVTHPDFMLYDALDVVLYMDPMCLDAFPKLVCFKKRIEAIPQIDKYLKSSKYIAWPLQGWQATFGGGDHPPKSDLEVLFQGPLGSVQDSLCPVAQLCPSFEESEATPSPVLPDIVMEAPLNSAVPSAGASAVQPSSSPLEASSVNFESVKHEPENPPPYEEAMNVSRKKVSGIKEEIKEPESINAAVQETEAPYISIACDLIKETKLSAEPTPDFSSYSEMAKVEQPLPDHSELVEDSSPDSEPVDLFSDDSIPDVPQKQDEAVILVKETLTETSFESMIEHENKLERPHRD
Source text: as §1

[6] = biological target: T6, Cynomolgus monkey NOGO (A56) plus GST tag (cynomolgus monkey); assay: as above
T6 construct: also called cynomolgus Nogo-A; GST-NOGO-A56 from cynomolgus
T6 sequence (chain, as listed by the source limits assumed): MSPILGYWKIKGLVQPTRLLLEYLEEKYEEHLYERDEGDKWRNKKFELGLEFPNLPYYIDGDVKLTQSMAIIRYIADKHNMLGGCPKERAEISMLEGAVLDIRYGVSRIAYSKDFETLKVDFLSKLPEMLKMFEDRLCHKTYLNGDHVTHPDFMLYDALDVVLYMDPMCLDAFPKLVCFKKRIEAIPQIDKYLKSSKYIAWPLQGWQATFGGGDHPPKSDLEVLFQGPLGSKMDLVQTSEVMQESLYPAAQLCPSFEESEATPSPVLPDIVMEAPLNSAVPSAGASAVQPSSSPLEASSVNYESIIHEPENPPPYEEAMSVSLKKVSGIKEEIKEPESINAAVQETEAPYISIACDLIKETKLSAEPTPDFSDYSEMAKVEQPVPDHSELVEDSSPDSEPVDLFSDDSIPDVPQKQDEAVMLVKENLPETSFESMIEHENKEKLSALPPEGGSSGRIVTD
Source text: as §1

[7] = biological target: T3, Rat NOGO (A56) plus GST tag; assay: direct ELISA on GST-NOGO-A56 from rat, Abs490
[8] = biological target: T1, GST-human NOGO-A56; assay: direct ELISA, GST-human NOGO-A56 coated at 1.0 mcg/ml, purified antibody, OD490
Procedure: (§2) Wells were rinsed once with TBS+0.05% Tween (TBST) then incubated with 2% BSA in TBST to block non-specific binding sites at room temperature for 1 hour. Antibodies were diluted in TBST+2% BSA to 10 μg/ml and ½ dilutions made from this. Antibodies were added to wells in duplicate and incubated at room temperature for 1 hour. […] The wells were washed three times with TBST and then incubated with 100 μl OPD peroxidase substrate (Sigma) per well for 10 minutes. The colour reaction was stopped by the addition of 25 μl concentrated H₂SO₄. Optical density at 490 nm was measured using a plate reader. Background values read from wells with no antibody were subtracted.

[9] = biological target: T1, GST-human NOGO-A56; assay: SPR (Biacore), GST-human NOGO-A56 amine-coupled to CM5, antibody flowed over, 25 C
Procedure: GST-human NOGO-A56 was immobilised to a CM5 chip by primary amine coupling using the Biacore Wizard program designed for targeted immobilisation levels. The CM5 sensor surface was activated by passing a solution of 50 mM N-hydroxy-succinimide (NHS) and 200 mM N-ethyl-N′-dimethylaminopropyl carbonide (EDC). Then GST-human NOGO-A56 in sodium acetate buffer, pH5.0 or pH 4.5, was passed over the chip and immobilised. After immobilisation was complete any still activated esters were blocked by an injection of 1M ethanolamine hydrochloride, pH8.5.
The anti-NOGO mAbs were diluted down in HBS-EP (10 mM HEPES, pH 7.4, 150 mM NaCl, 3 mM EDTA, and 0.005% P-20 surfactant) for the BIAcore 3000 or HBS-EP+ (10 mM HEPES, pH 7.4, 150 mM NaCl, 3 mM EDTA, and 0.05% P-20 surfactant) in the case of the T100 and binding studies were carried out at range of defined antibody concentrations. All runs were referenced against a blanked sensor surface (one that had been activated and blocked as described earlier but had no addition of ligand). Analysis of binding was carried out using the BIAevaluation kinetic analysis software version 4.1 for the BIAcore 3000 and T100 kinetic analysis software version 1.0. […] Unless otherwise stated, the BIAcore experiments were performed at 25° C.

[10] = biological target: T1, GST-human NOGO-A56; assay: direct ELISA, GST-human NOGO-A56 coated at 1.0 mcg/ml, purified antibody, OD490; remark: listed apart in the source
Procedure: as §2

[11] = biological target: T1, GST-human NOGO-A56; assay: reverse format ELISA: antibody captured on anti-human IgG, GST-Nogo-A 5+6 detected with anti-GST-HRP; the x axis is the antibody concentration
[12] = biological target: T1, GST-human NOGO-A56; assay: SPR (Biacore T100), antigen amine-coupled to CM5, antibody 0.125-8 nM; mean of six runs in duplicate (SD in brackets)
Source text: In the first approach, the recombinant Nogo-A was coupled to the surface of the chip and anti-Nogo-A antibodies passed over this surface. In the second approach, Protein A was used to capture the antibody onto the surface of the chip over which the recombinant GST-human Nogo-A56 was passed.
The antigen was bound to the CM5 chip by primary amine coupling. […] The values show the mean and standard deviation (in brackets) of six independent runs carried out in duplicate. Each completed data set was analysed independently prior to the calculation of mean and standard deviation.

[13] = biological target: T1, GST-human NOGO-A56; assay: direct ELISA, GST-Nogo-A 5+6 coated at 1.0 mcg/ml, anti-human IgG-HRP, Abs490
Procedure: as §2

[14] = biological target: T4, Squirrel monkey NOGO (A56) plus GST tag; assay: direct ELISA on GST-NOGO-A56 from squirrel monkey, Abs490
[15] = biological target: T1, GST-human NOGO-A56; assay: SPR (Biacore T100), human Nogo-A amine-coupled to CM5, antibody 0.125-8 nM flowed over; mean

Binder	Kd [1] [nM]	binding result [2]	Kd [3] [nM]	Kd [4] [nM]	Kd [5] [nM]	Kd [6] [nM]	EC50 (read off the curve) [7] [µg/mL]	EC50 (read off the curve) [8] [µg/mL]	Kd [9] [nM]	koff [9] [s⁻¹]	kon [9] [M⁻¹ s⁻¹]	EC50 (read off the curve) [10] [µg/mL]	EC50 (read off the curve) [11] [µg/mL]	Kd [12] [nM]	EC50 (read off the curve) [13] [µg/mL]	EC50 (read off the curve) [14] [µg/mL]	Kd [15] [nM]	kon [15] [M⁻¹ s⁻¹]
B1	0.41	binds	1.12	1.54	1.42	1.68	~0.1	~0.06	0.779	0.00249	3.19e+06	~0.09	~0.1	1.86	~0.08	~0.07	1.86	
B2	0.34	binds	0.33	0.61	0.626	0.67	~0.05	~0.06	0.296	0.00214	7.25e+06	~0.08	~0.06	0.64	~0.03	~0.05	0.64	6.97e+06
